Our source for the Kd values is patent US20170058032A1 (published 2017).

The target of this test is T1, extracellular domain of human CD79b fused to Fc (huCD79becd-Fc) (UniProt P40259 29-159).
T1 chain: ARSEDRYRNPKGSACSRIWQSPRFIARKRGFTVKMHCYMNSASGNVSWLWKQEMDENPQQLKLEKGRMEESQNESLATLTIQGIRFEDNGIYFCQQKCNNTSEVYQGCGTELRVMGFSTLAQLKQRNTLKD
Nature of the test: Biacore; Fab. In general terms: SPR reads the build-up and loss of mass on a sensor chip optically.

B1: MA79b Fab (Fab, V domains shown)
VH: EVQLQQSGAELMKPGASVKISCKATGYTFSSYWIEWVKQRPGHGLEWIGEILPGGGDTNYNEIFKGKATFTADTSSNTAYMQLSSLTSEDSAVYYCTRRVPVYFDYWGQGTSVTVSS
VL: DIVLTQSPASLAVSLGQRATISCKASQSVDYDGDSFLNWYQQKPGQPPKLFIYAASNLESGIPARFSGSGSGTDFTLNIHPVEEEDAATYYCQQSNEDPLTFGAGTELELKR
As usually defined, the Kd is the equilibrium constant for the complex coming apart. Low values mean tighter binding, high ones weaker binding. B1 returned a Kd of 200 nM.
